Assay results taken from patent publication US20150023988A1.
Values joined by “and” are separate entries in the source; they are usually repeats but may differ in a detail not shown here. Equal values may be shown once. Read-outs that look alike come from different tables or passages of the source.

Experiments:
[1] = molecular target: human voltage-gated sodium channel Nav1.7 (human) (UniProt Q15858); test: cell-based or functional assay
[2] = molecular target: TTX-sensitive Nav channels in mouse DRG neuron; test: cell-based or functional assay
[3] = molecular target: human voltage-gated sodium channel Nav1.3 (human) (UniProt Q9NY46); test: cell-based or functional assay
[4] = molecular target: human voltage-gated sodium channel Nav1.5 (human) (UniProt Q14524); test: cell-based or functional assay
[5] = molecular target: human voltage-gated sodium channel Nav1.7 (human) (UniProt Q15858); test: cell-based or functional assay; remark: listed apart in the source
[6] = molecular target: human voltage-gated sodium channel Nav1.4 (human) (UniProt P35499); test: cell-based or functional assay
[7] = molecular target: human voltage-gated sodium channel Nav1.8 (human) (UniProt Q9Y5Y9); test: cell-based or functional assay
[8] = molecular target: human voltage-gated sodium channel Nav1.5 (human) (UniProt Q14524); test: cell-based or functional assay; remark: listed apart in the source
[9] = molecular target: human voltage-gated sodium channel Nav1.4 (human) (UniProt P35499); test: cell-based or functional assay; remark: listed apart in the source
[10] = molecular target: TTX-sensitive Nav channels in mouse DRG neurons; test: cell-based or functional assay
[11] = molecular target: TTX-resistant Nav channels in mouse DRG neurons; test: cell-based or functional assay
[12] = molecular target: human voltage-gated sodium channel Nav1.3 (human) (UniProt Q9NY46); test: cell-based or functional assay; remark: listed apart in the source
[13] = molecular target: human voltage-gated sodium channel Nav1.8 (human), Q9Y5Y9; details: chains peptide; modification not given

human voltage-gated sodium channel Nav1.8 (human), sequence (Q9Y5Y9 whole entry): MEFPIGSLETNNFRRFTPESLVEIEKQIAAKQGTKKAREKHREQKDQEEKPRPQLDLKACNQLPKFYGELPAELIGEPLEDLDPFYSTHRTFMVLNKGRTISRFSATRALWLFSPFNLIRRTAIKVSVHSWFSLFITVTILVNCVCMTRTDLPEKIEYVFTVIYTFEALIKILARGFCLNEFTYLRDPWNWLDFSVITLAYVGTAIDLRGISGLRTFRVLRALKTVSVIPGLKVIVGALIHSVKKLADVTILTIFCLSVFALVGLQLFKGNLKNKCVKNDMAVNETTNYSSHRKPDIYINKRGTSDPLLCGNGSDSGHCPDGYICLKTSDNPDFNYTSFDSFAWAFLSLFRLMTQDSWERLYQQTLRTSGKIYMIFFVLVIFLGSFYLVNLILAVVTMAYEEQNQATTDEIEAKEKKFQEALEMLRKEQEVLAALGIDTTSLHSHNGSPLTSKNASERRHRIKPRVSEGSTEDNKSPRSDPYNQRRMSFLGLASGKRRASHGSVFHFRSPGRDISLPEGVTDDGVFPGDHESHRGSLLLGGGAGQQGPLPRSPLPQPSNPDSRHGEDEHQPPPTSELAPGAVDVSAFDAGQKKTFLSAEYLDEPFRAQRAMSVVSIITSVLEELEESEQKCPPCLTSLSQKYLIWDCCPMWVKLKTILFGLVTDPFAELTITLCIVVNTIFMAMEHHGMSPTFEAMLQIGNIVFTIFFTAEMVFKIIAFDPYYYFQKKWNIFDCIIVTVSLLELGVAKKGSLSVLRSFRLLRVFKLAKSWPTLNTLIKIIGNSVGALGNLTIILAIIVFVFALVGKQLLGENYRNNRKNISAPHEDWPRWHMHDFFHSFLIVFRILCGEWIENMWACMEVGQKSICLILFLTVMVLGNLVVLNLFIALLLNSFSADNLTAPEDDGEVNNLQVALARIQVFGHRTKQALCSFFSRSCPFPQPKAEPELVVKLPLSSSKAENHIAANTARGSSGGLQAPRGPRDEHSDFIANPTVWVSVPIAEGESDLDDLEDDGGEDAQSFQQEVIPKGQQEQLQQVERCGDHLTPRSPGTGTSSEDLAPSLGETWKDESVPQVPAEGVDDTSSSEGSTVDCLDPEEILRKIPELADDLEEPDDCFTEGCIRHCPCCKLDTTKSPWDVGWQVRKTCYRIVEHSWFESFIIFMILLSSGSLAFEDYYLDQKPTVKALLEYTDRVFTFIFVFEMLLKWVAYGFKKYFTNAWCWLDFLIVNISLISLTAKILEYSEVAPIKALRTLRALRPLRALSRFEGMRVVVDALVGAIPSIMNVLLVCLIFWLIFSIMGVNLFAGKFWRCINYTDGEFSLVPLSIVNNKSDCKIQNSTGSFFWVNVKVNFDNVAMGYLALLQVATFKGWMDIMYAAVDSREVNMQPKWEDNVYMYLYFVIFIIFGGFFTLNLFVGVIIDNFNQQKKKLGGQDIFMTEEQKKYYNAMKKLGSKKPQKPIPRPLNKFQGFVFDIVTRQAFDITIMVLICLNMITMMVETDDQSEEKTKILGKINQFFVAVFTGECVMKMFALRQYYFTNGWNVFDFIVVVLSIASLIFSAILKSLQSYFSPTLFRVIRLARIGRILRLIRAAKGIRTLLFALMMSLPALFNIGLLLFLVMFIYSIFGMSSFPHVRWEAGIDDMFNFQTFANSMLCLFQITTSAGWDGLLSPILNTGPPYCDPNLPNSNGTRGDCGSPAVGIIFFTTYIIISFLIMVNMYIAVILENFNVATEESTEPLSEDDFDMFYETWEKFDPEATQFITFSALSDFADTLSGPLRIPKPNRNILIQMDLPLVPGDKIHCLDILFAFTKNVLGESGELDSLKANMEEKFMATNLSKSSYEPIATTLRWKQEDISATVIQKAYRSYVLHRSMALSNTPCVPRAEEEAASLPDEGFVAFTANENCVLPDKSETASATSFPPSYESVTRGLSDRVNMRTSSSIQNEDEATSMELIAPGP
human voltage-gated sodium channel Nav1.4 (human), sequence (P35499 whole entry): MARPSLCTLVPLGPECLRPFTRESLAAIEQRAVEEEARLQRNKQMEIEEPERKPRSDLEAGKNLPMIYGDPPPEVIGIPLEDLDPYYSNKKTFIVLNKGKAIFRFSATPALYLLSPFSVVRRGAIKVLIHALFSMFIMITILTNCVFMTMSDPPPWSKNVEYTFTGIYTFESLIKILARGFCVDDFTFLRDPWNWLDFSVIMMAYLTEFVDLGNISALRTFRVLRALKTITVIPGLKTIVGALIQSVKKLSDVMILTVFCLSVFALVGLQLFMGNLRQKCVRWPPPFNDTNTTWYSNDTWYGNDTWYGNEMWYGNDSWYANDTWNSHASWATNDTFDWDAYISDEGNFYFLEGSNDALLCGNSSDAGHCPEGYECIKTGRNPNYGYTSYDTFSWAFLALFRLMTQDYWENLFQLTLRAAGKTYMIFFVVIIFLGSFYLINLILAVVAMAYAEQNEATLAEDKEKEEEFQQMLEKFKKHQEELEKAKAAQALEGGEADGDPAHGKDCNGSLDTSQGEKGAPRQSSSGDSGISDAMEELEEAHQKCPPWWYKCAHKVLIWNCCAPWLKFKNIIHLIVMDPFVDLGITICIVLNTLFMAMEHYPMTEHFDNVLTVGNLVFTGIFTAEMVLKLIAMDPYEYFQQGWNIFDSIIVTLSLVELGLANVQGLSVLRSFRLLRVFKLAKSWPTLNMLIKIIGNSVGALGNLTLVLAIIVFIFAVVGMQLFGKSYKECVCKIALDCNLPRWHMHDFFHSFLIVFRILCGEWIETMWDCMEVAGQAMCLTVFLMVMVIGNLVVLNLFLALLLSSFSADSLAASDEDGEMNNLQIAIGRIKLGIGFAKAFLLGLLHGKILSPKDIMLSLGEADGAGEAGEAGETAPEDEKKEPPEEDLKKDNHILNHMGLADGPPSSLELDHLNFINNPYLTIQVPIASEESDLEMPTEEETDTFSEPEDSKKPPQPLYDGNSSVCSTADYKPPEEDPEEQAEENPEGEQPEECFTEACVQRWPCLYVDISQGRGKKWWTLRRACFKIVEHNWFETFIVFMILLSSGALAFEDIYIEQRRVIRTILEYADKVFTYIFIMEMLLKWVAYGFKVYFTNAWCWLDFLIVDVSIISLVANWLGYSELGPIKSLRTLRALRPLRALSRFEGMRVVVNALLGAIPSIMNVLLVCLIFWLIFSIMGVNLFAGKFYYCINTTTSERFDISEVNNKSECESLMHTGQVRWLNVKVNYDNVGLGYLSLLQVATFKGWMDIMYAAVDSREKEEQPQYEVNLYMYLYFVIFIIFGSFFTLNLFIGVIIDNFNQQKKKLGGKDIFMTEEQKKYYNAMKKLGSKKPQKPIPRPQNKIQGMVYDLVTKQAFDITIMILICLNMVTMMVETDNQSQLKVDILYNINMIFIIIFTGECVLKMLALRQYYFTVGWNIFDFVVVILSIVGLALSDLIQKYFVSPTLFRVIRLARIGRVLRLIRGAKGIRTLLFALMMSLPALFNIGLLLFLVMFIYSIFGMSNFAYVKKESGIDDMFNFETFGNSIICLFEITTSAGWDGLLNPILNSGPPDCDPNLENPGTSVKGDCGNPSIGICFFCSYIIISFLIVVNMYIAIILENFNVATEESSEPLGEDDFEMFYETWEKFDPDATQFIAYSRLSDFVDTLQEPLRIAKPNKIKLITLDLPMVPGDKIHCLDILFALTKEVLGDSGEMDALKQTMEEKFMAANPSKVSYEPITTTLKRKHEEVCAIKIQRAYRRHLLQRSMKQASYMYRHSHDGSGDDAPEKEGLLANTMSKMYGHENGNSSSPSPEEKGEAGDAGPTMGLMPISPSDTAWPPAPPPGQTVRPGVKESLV

Pra-[Nle6]JzTx-V(1-29) (peptide) was tested, and the fold improvement in hNav1.7 potency over wild type JzTx-V, WCPC [1] was 190 fold, the fold potency against hNav1.7 over wild type JzTx-V(1-29), WCPC [1] was 200 fold and the fold potency over JzTx-V on TTX-sensitive current, mouse DRG neurons [2] was 3 fold.

In the case of [Nle6]JzTx-V(1-29) (peptide), the IC50 (IonWorks Quattro) [3] is reported as over 5000 nM, the IC50 (IonWorks Quattro) [4] is reported as over 5000 nM and the IC50 (IonWorks Quattro) [5] is reported as over 5000 nM. For the same molecule, the IC50 (IonWorks Quattro) [6] was over 5000 nM and the PX hNav1.7 Tonic IC50 [1] was 0.586 nM.

Work on “[Phe6,Atz(2 kDa EtO-PEG*-{[Phe6,Atz13*]GpTx-1(1-34)})13]GpTx-1(1-34) (peptide)” yielded a Nav1.7 WCPC IC50 [1] of 0.58 nM.

In the case of JzTx-V(1-29) (peptide), the IC50 (IonWorks Quattro) [4] is reported as over 7000 nM, the IC50 (IonWorks Quattro) [5] is reported as 40 nM and the IC50 (IonWorks Quattro) [6] is reported as 200 nM. The 1.x/1.7, fully non-inactivated [7] was 5720 fold, the 1.x/1.7, partially inactivated [7] was 3280 fold and the Mean IC50, fully non-inactivated (WCPC) [7] was 810 nM. The Mean IC50, partially inactivated (WCPC) [7] was 530 nM, the 1.x/1.7, fully non-inactivated [8] was 6230 fold and the 1.x/1.7, partially inactivated [8] was 2640 fold. It also gave an IC50 (IonWorks Quattro) [8] of 7200 nM, a Mean IC50, fully non-inactivated (WCPC) [8] of 882 nM and a Mean IC50, partially inactivated (WCPC) [8] of 426 nM. For the same molecule, the PX hNav1.5 Tonic IC50 [8] was 2210 nM and 3250 nM and 1600 nM, the IC50 (IonWorks Quattro) [1] was 20 nM and the Mean IC50, fully non-inactivated (WCPC) [1] was 0.141 nM. The Mean IC50, partially inactivated (WCPC) [1] was 0.162 nM, the PX hNav1.4 Tonic IC50 [9] was 3 nM and 2 nM and the average IC50 against hNav1.4, PX assay format [9] was 2 nM. For the same molecule, the 1.x/1.7, fully non-inactivated [10] was 530 fold, the 1.x/1.7, partially inactivated [10] was 111 fold and the Mean IC50, fully non-inactivated (WCPC) [10] was 75 nM. The Mean IC50, partially inactivated (WCPC) [10] was 18 nM, the Mean IC50, fully non-inactivated (WCPC) [11] was over 1000 nM and the Mean IC50, partially inactivated (WCPC) [11] was over 1000 nM.

Molecule JzTx-45 (peptide) has a PX hNav1.5 Tonic IC50 [8] of 7460 nM, a PX hNav1.7 Tonic IC50 [1] of 122 nM and a PX hNav1.4 Tonic IC50 [9] of 321 nM.

“Atz(NPEG10)-[Nle6]JzTx-V(1-29) (peptide)” showed a Nav1.5/Nav1.7 [8] of 629 fold, a PX hNav1.5 Tonic IC50 [8] of 3770 nM and a PX hNav1.7 Tonic IC50 [1] of 6 nM. The Nav1.4/Nav1.7 [9] was 1 fold and the PX hNav1.4 Tonic IC50 [9] was 8 nM.

In the case of [1-Nal7]JzTx-V(1-29) (peptide), the PX hNav1.5 Tonic IC50 [8] is reported as 1420 nM, the PX hNav1.7 Tonic IC50 [1] is reported as 0.4 nM and the PX hNav1.4 Tonic IC50 [9] is reported as 0.9 nM.

In the case of “Bis-{Atz(PEG23*)-[Nle6]JzTx-V(1-29)}-5-((2-(benzylthio)acetamido)methyl)isophthalamide (peptide)”, the PX hNav1.5 Tonic IC50 [8] is reported as 720 nM and 1180 nM and the Nav1.4/Nav1.7 [9] is reported as 5 fold and 3 fold.

Work on [Cit20]JzTx-V(1-29) (peptide) yielded an IC50 (IonWorks Quattro) [12] of 350 nM, an IC50 (IonWorks Quattro) [8] of 6800 nM and an IC50 (IonWorks Quattro) [1] of 40 nM. For the same molecule, the IC50 (IonWorks Quattro) [9] was 500 nM and the Nav1.4/Nav1.7 (ratio of IC50s) [9] was 15.

In the case of “Atz(PEG11-benzylthioacetamide)-[Nle6]JzTx-V(1-29) (peptide)”, the Nav1.5/Nav1.7 [8] is reported as 1420 fold, the PX hNav1.5 Tonic IC50 [8] is reported as 1980 nM and the PX hNav1.7 Tonic IC50 [1] is reported as 1.4 nM. It also gave a Nav1.4/Nav1.7 [9] of 9 fold and a PX hNav1.4 Tonic IC50 [9] of 13 nM.

For “CyA-[Nle6,Lys(Pra)14,Glu28]JzTx-V(1-29) (peptide)”, the fold loss of potency against JzTx-V on TTX-sensitive current, mouse DRG neurons [2] was 3 fold.

In the case of [Nva20]JzTx-V(1-29) (peptide), the IC50 (IonWorks Quattro) [12] is reported as over 5000 nM, the IC50 (IonWorks Quattro) [8] is reported as 10400 nM and the IC50 (IonWorks Quattro) [1] is reported as 170 nM. For the same molecule, the IC50 (IonWorks Quattro) [9] was 3100 nM and the Nav1.4/Nav1.7 (ratio of IC50s) [9] was 19.

[Cpa20]JzTx-V(1-29) (peptide) was tested, and the IC50 (IonWorks Quattro) [12] was over 5000 nM, the IC50 (IonWorks Quattro) [8] was 14200 nM and the IC50 (IonWorks Quattro) [1] was 210 nM. For the same molecule, the IC50 (IonWorks Quattro) [9] was over 5000 nM and the Nav1.4/Nav1.7 (ratio of IC50s) [9] was 24.

Work on GpTx-1 (peptide) yielded a Nav1.7 whole cell patch clamp [WCPC] IC50 [1] of 3 nM.

[Abu20]JzTx-V(1-29) (peptide) gave an IC50 (IonWorks Quattro) [12] of 970 nM, an IC50 (IonWorks Quattro) [8] of 10600 nM and an IC50 (IonWorks Quattro) [1] of 50 nM. For the same molecule, the IC50 (IonWorks Quattro) [9] was 900 nM and the Nav1.4/Nav1.7 (ratio of IC50s) [9] was 19.

In the case of YCQKWMWTCDSKRACCEGLRCKLWCRKII [JzTx-V(1-29)], the IC50 [13] is reported as 630 nM and 430 nM.
